Measurements from publication PMC9352930, “Structure-Guided Engineering of a Complement Component C3-Binding Nanobody Improves Specificity and Adds Cofactor Activity” (Frontiers in Immunology, 2022).
Numbering of substitutions follows the chain as printed.

How the values were obtained:
Conditions in all cases: both partners purified
[1] = molecular target: T1, C3b (proteolytic fragment of complement component C3) (human, UniProt P01024); experiment: BLI; single concentration: nanobody variant held on anti-penta his (His1K) biosensors, transferred into 50 nM C3 or C3b for 180 s; 20 mM HEPES pH 7.5, 150 mM NaCl, 30°C
T1 construct: complement component C3, human, beta chain; complement component C3, human, alpha' chain (alpha chain after release of C3a); also called human C3b; source: generated from native plasma C3 by trypsin cleavage, purified

[2] = molecular target: T1, C3b (proteolytic fragment of complement …); experiment: SPR; biotinylated C-terminally avi-tagged nanobody on streptavidin (CM500M chip); native C3, C3b and C3MA injected at 0.4-200 nM; 20 mM HEPES pH 7.5, 150 mM NaCl, 0.05% Tween 20, 25°C; 1:1 model; KD for native C3 called apparent
iC3b = molecular target: T2, iC3b (human); experiment: BLI; kinetics: EWE, EWEµH or EWEnH held on anti-penta his (His1K) biosensors, dilution series of C3b or iC3b; 20 mM HEPES pH 7.5, 150 mM NaCl, 30°C; 1:1 model
T2 construct: complement component C3, human, beta chain; it says only that FI degrades C3b to iC3b; copies: + +
T2 sequence (chain, as listed by the source, chain 1 of 3): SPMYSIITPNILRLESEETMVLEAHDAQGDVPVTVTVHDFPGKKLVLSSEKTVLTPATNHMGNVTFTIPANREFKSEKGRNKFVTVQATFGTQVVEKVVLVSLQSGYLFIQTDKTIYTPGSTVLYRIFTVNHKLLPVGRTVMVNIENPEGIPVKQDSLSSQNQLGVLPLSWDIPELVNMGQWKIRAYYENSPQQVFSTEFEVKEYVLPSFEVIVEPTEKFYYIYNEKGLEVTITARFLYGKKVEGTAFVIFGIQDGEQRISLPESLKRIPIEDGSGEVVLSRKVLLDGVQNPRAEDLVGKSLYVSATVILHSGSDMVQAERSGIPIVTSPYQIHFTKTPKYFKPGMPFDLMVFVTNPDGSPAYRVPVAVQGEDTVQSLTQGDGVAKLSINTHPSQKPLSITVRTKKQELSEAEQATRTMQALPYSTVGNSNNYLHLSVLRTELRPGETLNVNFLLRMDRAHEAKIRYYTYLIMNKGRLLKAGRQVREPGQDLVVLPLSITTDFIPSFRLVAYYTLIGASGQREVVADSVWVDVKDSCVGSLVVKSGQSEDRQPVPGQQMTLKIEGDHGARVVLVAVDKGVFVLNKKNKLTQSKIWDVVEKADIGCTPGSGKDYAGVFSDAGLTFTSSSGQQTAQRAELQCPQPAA
T2 sequence (chain, as listed by the source, chain 2 of 3): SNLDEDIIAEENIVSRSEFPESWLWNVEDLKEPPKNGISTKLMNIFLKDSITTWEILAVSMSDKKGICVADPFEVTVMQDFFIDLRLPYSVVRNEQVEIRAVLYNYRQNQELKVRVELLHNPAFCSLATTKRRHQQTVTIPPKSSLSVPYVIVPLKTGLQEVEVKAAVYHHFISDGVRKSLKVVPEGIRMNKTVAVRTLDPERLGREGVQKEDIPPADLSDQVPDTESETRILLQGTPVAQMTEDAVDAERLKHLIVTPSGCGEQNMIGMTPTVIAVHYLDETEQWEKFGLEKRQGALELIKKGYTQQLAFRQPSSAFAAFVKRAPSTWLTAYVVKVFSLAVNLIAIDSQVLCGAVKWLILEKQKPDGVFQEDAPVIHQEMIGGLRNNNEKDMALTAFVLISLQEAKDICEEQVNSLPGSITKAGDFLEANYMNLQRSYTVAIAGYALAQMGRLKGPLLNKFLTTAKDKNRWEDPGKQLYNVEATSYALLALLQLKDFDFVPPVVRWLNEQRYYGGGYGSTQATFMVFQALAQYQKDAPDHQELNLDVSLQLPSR
T2 sequence (chain, as listed by the source, chain 3 of 3): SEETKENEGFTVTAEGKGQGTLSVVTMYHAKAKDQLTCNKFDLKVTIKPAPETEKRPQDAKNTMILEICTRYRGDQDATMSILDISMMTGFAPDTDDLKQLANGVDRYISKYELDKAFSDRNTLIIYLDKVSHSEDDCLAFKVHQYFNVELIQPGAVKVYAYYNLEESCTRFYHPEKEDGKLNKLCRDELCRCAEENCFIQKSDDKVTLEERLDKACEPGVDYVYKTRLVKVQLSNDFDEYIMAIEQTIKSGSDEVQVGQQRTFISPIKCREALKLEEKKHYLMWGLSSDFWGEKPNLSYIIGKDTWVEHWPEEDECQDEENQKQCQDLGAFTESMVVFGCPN

[3] = molecular target: T1, C3b (proteolytic fragment of complement …); experiment: as above
[4] = molecular target: T1, C3b (proteolytic fragment of complement …); experiment: SEC; C3 or C3b mixed with a two-fold molar excess of nanobody, 5 min on ice; Superdex 200 increase, 20 mM HEPES pH 7.5, 150 mM NaCl; peak fractions on SDS-PAGE

B1: hC3Nb1 ΔQ1 (VHH)
VHH: VQLVETGGGLVQAGGSLRLSCAASGSIFSLNAMGWFRQAPGKEREFVATINRSGGRTYYADSVKGRFTISRDNGKNMVYLQMHSLKPEDTAIYYCAAGTGWSPQTDNEYNYWGQGTQVTVSS
notes: hC3Nb1 nanobody with the N-terminal glutamine deleted; parent as the nanobody piece of m6; The printed calculated mass (14068.6) fits a protein without the N-terminal methionine (my reckoning against 14327.9 for m6); source: expressed in bacteria, purified
binding result [1]: binds

B2: avi-tagged, biotinylated EWE nanobody (VHH)
VHH: QVQLVETGGGLVQAGGSLRLSCAASGSIFSINAMGWFRQAPGKEREFVATINRSGGRTYYADSVKGRFTISRDNGKNMVYLQMHSLKPEDTAIYYCAAGTGWSPQTDNEYNYWGQGTQVTVSS
notes: hC3Nb1 nanobody; as the nanobody piece of m6; also called avi-tagged version of EWE; source: purified similarly to EWE (bacteria; HisTrap, Source 15S, SEC) and biotinylated; not shown: Avi tag, C-terminal, kept
Kd [2]: 2.2 nM

B3: hC3Nb1 nanobody, mammalian expressed (VHH)
VHH: B2 VHH with I31L
notes: hC3Nb1 nanobody without the N-terminal methionine; in the PDB entries 6EHG and 6RU5; pcDNA 3.1 vector; The calculated mass differs from that of the bacterial construct by more than a methionine, so tag or ends may differ; source: HEK293, transiently transfected, purified from conditioned media (HisTrap excel, ion exchange, SEC)
binding result [1]: binds

B4: EWE-hC3Nb1 nanobody, bacterially expressed (VHH)
VHH: B2 VHH
notes: hC3Nb1 nanobody, beginning with its N-terminal glutamine (Gln4 of EWE); as the nanobody piece of m6; also called EWE nanobody; source: LOBSTR cells (bacteria), purified (HisTrap, Source 15S, SEC); not shown: 6xHis, C-terminal, kept
Kd (iC3b): 3.6 nM | Kd [3]: 3 nM

B5: hC3Nb1 nanobody, bacterially expressed (VHH)
VHH: B2 VHH with I31L
notes: N-terminal methionine, retained according to mass spectrometry; hC3Nb1 nanobody; in the PDB entries of its complexes with C3b (6EHG) and C3 (6RU5); pET-22b(+) plasmid; Held on anti-penta-His sensors in BLI; also called parental hC3Nb1; hC3bNb1; source: LOBSTR cells (bacteria), purified (HisTrap, Source 15S, SEC)
binding result [4]: binds

B6: hC3Nb1 Q1N (VHH)
VHH: B2 VHH with Q1N, I31L
notes: hC3Nb1 nanobody with the N-terminal glutamine mutated to asparagine; parent as the nanobody piece of m6; The printed calculated mass (14182.7) fits a protein without the N-terminal methionine (my reckoning against 14327.9 for m6); source: expressed in bacteria, purified
binding result [1]: binds
